In patent US20230190812A1 (published 2023):

Target: T1, MAGE-A4 (MA4-230) peptide on HLA-A*02:01 (human)
T1 peptide: GVYDGREHTV
Assay: multimer staining

B1: MA4-230 H1 TCR (TCR, V domains shown)
Valpha: LAKTTQPISMDSYEGQEVNITCSHNNIATNDYITWYQQFPSQGPRFIIQGYKTKVTNEVASLFIPADRKSSTLSLPRVSLSDTAVYYCLVVEGNRDDKIIFGKGTRLHILP
Vbeta: NAGVTQTPKFRVLKTGQSMTLLCAQDMNHEYMYWYRQDPGMGLRLIHYSVGEGTTAKGEVPDGYNVSRLKKQNFLLGLESAAPSQTSVYFCASPPTPSSYNEQFFGPGTRLTVL
  binding result: recognises
